Experimental data from patent US9752119B2, “Substantially pure human retinal progenitor, forebrain progenitor, and retinal pigment epithelium cell cultures and methods of making the same” (Wisconsin Alumni Research Foundation, priority 2009, dated 2017).

Experiments:
human ESC cultures = experiment: Mitf and Chx10 gene expression (qPCR) in human ESC cultures treated during optic vesicle and optic cup stages; type: cell-based; conditions: SU5402 added days 16-40, measured at day 40
Protocol: The columnar rosette cells found in the center of these colonies were denser than those cells in the periphery, so they were easily dislodged by this pipetting technique, leaving the non-rosette cells attached to the plate. We took care not to break up the lifted colonies during this step. Detached colonies were collected in a 15 ml conical tube and spun in a centrifuge at 600 rpm for 1 minute to effectively pellet the detached colonies while leaving most single cells in suspension in the culture medium. The supernatant was then aspirated from the tube and the clusters were re-suspended in 10 ml of Retinal Differentiation Medium (RDM) and transferred to a new T25 flask. RDM included DMEM/F12 (3:1) supplemented with 2% B27. […] Within 3-5 days after detachment of the cells (19th-21st day of the differentiation), neurospheres readily adopted one of two major appearances. […]
RT-PCR experiments were done as follows to check gene expression: Total RNA was isolated from cell cultures from various stages of differentiation using the RNAeasy® kit (Qiagen) and treated with DNAse I. Reverse transcription was performed with the Superscript III RT-PCR kit (Invitrogen). […] For quantitative RT-PCR (qPCR), reactions were performed with Sybr Green Supermix (Applied Biosystems) and the Opticon 2 DNA Engine and Opticon Monitor 2.02 software (MJ Research). […] Quantitative RT-PCR primers were run for 40 cycles.

human ESC = experiment: Eye field specification from differentiating human ESC: Pax6 and Rx gene expression (RT-PCR/qPCR) and neuroepithelial colony formation; type: cell-based; conditions: for appearance of neuroepithelial colonies / expression of Pax6 and Rx: Wnt3A and BMP4 added together (100 ng/ml) over the first 10 days of differentiation; for appearance of neuroepithelial colonies: morphology at day 10; for expression of Pax6 and Rx: qPCR
Protocol: (1) Making human ESC aggregates: Human ESC were grown on irradiated MEFs to approximately 80% confluence in a 6-well plate. Upon reaching 80% confluence, the human ESC medium was aspirated off and 1 ml of dispase (1 mg/ml, Gibco #17105-041) solution was added to each well. After 5 minutes, the cells were examined for curling of human ESC colony edges, indicative of the colonies beginning to lift off of the plate. If noticeable curling was evident, the dispase solution was aspirated off of the plate and replaced with 1 ml of DMEM/F12 per well. The human ESC colonies were mechanically lifted from the plate by pipetting a few times with a 10 ml pipette. When all colonies were detached, the cells were transferred to a 15 ml conical tube and allowed to settle by gravity. After the aggregates had settled (˜5 minutes), the supernatant was aspirated and replaced with 10 ml of Embryoid Body (EB) medium, which contained DMEM/F12 (1:1) (Gibco #11330-065), 20% knockout serum replacement (Gibco #10828-028), 0.1 mM β-mercaptoethanol, 1 mM L-glutamine (Gibco #25030-081) and 1% MEM nonessential amino acids (Gibco #11140-050). The pellet of cells was resuspended by repeated pipetting 2-3 times with a 10 ml pipette, just enough to separate the individual aggregates while minimizing their dissociation. Aggregates were approximately 400 μm in diameter. These aggregates were then transferred to a T25 flask and placed in the incubator. The next day, the aggregates formed floating, sphere-like structures. (If significant attachment of human ESC and/or residual MEF cells was observed, the unattached aggregates were transferred to a new flask.) These cells were fed with fresh EB medium every day for the first 4 days.
(2) Differentiating to anterior neuroepithelial fate: The aggregates were then collected by settling in a 15 ml conical tube and washed once with 10 ml of DMEM/F12. Upon resettlement of the aggregates, the supernatant was removed and the aggregates were re-suspended in 10 ml of Neural Induction Medium (NIM) and transferred to a new T25 flask. NIM included DMEM/F12 (1:1) (Gibco #11330-065), 1% N2 supplement (Gibco #17502-048), 1% MEM nonessential amino acids (Gibco #11140-050), and 2 μg/ml heparin (Sigma #H-3149). Two days later, a 6-well plate was coated with laminin (20 μg/ml diluted in DMEM) and the coated plate was left in the incubator overnight. By this time, aggregates had become brighter and acquired clearly defined edges. The next day, approximately 50 aggregates were plated in each well of a 6 well plate. An additional 2 ml of fresh NIM was added to each well. The cells were then placed in the incubator, making sure the cells were distributed evenly in the plate by gently shaking the plate back and forth as well as side-to-side a few times. Within the first couple of days (by a total of 9 days), most aggregates attached to the laminin-coated surface. […]
RT-PCR experiments were done as follows to check gene expression: Total RNA was isolated from cell cultures from various stages of differentiation using the RNAeasy® kit (Qiagen) and treated with DNAse I. Reverse transcription was performed with the Superscript III RT-PCR kit (Invitrogen). […] For quantitative RT-PCR (qPCR), reactions were performed with Sybr Green Supermix (Applied Biosystems) and the Opticon 2 DNA Engine and Opticon Monitor 2.02 software (MJ Research). […]

[1] = system: hiPSC-derived vesicular neurospheres; experiment: RPE specification from hiPSC-derived vesicular neurospheres in the presence of Activin (bright field microscopy, qPCR); type: cell-based, human
Protocol: RT-PCR experiments were done as follows to check gene expression: Total RNA was isolated from cell cultures from various stages of differentiation using the RNAeasy® kit (Qiagen) and treated with DNAse I. Reverse transcription was performed with the Superscript III RT-PCR kit (Invitrogen). PCR was performed with GoTaq PCR master mix (Promega) and subsequent PCR products were run on 2% agarose gels. For quantitative RT-PCR (qPCR), reactions were performed with Sybr Green Supermix (Applied Biosystems) and the Opticon 2 DNA Engine and Opticon Monitor 2.02 software (MJ Research). All primer sets listed were run for 30 cycles at an annealing temperature of 60° C. unless otherwise noted. Quantitative RT-PCR primers were run for 40 cycles.
Activin signaling has previously been implicated in this cell fate determination and as such, we sought to determine if Activin could influence these cells to adopt an RPE fate. […] Based on this feature, these aggregates could be manually isolated to generate highly enriched populations of RPE. When plated onto a laminin-coated substrate and in the presence of the mitogens FGF2 and EGF, these cells were capable of proliferation and outgrowth from the aggregate (FIG. 18D). […] Further maturation of these treated cells confirms that Activin signaling plays a role in the acquisition of an RPE fate at the expense of the neural retina, as Activin-treated cultures expressed RPE-specific genes such as RPE65 at higher levels than the untreated cells, whereas untreated cells expressed higher levels of genes associated with the neural retina including Brn3A (FIG. 18E-F).

hiPSCs = experiment: Neural/retinal specification of hiPSCs after addition of BMP and Wnt inhibitors (immunocytochemistry, FACS); type: cell-based, human; conditions: for expression of Pax6: recombinant Dkk1 and Noggin added together from 2-4 days of differentiation, immunocytochemistry; for expression of Chx10: treatment with Dkk1 and Noggin together, after 20 days of differentiation, FACS
Protocol: Immunocytochemistry was done as follows to check protein expression: human ESC aggregates or neurospheres were plated onto poly-ornithine- and laminin-coated coverslips overnight to allow for attachment, and then fixed with 4% paraformaldehyde. Cells were then permeabilized in 0.2% Triton X-100 for 10 minutes. For Mitf immunocytochemistry, cells were incubated in ice-cold 90% methanol for 10 minutes as an additional permeabilization step. Labeled cells were visualized with either Alexafluor 488- or Cy3-conjugated secondary antibodies, and nuclei were counterstained with either Hoechst or To-Pro-3 nuclear dyes. Images were obtained from a Nikon TE600 fluorescent microscope equipped with a SPOT camera and software or from z-stacks of cell clusters obtained on a Nikon Cl Laser Scanning Confocal microscope.
FACS analysis was done as follows to quantify the percentage of cells acquiring expression of Pax6 and Rx: Cells were dissociated with either trypsin or Accutase® (Chem icon), washed with a fluorescence-activated cell sorting (FACS) buffer (PBS, 0.1% sodium azide, and 2% donkey serum), and fixed with 0.1% paraformaldehyde for 10 minutes. Cells were then permeabilized with ice-cold 90% methanol for 20 minutes and incubated overnight in primary antibodies at a concentration of 1 μg of antibody per 1 million cells in FACS buffer. Antibody information is found in Table 2. Immunostaining was then completed with either donkey-anti-mouse or donkey-anti-rabbit Alexa 488 secondary antibodies for 2 hours, after which cells were washed with FACS buffer, and then sorted with a Becton Dickinson FACSCaliber. Data retrieved from the sorting was analyzed with CellQuest Pro software (Becton Dickinson).
To test this hypothesis, inhibitors of BMP signaling (Noggin or Dorsomorphin) and Wnt signaling (Dkk-1 or XAV-939) were added to cultures from days 2 to 4 of differentiation, a timeframe that was shown in Example 1 to be prior to the onset of neural specification based on Pax6 and Rax expression. […] This was further confirmed through immunocytochemistry, where cells treated with BMP and Wnt inhibitors were more likely to express the neural transcription factors Pax6 and Sox1 as well as eye field transcription factors Lhx2 and Six6.

Molecule	expression of Pax6 (hiPSCs)	expression of Chx10 (hiPSCs)	appearance of neuroepithelial colonies (human ESC)	expression of Pax6 and Rx (human ESC)	also measured
Cc1c[nH]c(/C=C2\C(=O)Nc3ccccc32)c1CCC(=O)O [SU5402]					increase in Mitf gene expression (human ESC cultures): 11.8 fold; reduction of Chx10 expression (human ESC cultures): 15.9 fold; Pax6 and Rx expression (human ESC; 10 μM SU5402, day 10 of differentiation, RT-PCR): complete loss
Activin: Activin-A added to vesicular neurosphere cultures to influence RPE fate (protein, UniProt P08476 311-426, looked up, Inhibin beta A chain) Inhibin beta A chain: GLECDGKVNICCKKQFFVSFKDIGWNDWIIAPSGYHANYCEGECPSHIAGTSGSSLSFHSTVINHYRMRGHSPFANLKSCCVPTKLRPMSMLYYDDGQNIIKKDIQNMIVEECGCS					development of pigmented, RPE-like phenotype ([1]; Activin added upon isolation of vesicular neurospheres until a total of 40 days of differentiation): a subset of the neurospheres was capable of developing a pigmented phenotype; expression of neural retinal-associated genes ([1]; Activin-A treated versus untreated vesicular spheres, qPCR): lower levels; expression of RPE-specific genes such as RPE65 ([1]; Activin-treated versus untreated cultures, qPCR): higher levels
Dkk1: recombinant Dkk1, inhibitor of Wnt signaling (protein, UniProt O94907 32-266, looked up) Dickkopf-related protein 1: TLNSVLNSNAIKNLPPPLGGAAGHPGSAVSAAPGILYPGGNKYQTIDNYQPYPCAEDEECGTDEYCASPTRGGDAGVQICLACRKRRKRCMRHAMCCPGNYCKNGICVSSDQNHFRGEIEETITESFGNDHSTLDGYSRRTTLSSKMYHTKGQEGSVCLRSSDCASGLCCARHFWSKICKPVLKEGQVCTKHRRKGSHGLEIFQRCYCGEGLSCRIQKDHHQASNSSRLHTCQRH	restored	increased			
Noggin: recombinant Noggin, inhibitor of BMP signaling (protein, UniProt Q13253 28-232, looked up) Noggin: QHYLHIRPAPSDNLPLVDLIEHPDPIFDPKEKDLNETLLRSLLGGHYDPGFMATSPPEDRPGGGGGAAGGAEDLAELDQLLRQRPSGAMPSEIKGLEFSEGLAQGKKQRLSKKLRRKLQMWLWSQTFCPVLYAWNDLGSRFWPRYVKVGSCFSKRSCSVPEGMVCKPSKSVHLTVLRWRCQRRGGQRCGWIPIQYPIISECKCSC	restored	increased			
Wnt3A: recombinant Wnt3a, added to differentiating human ESC (protein, UniProt P56704 19-352, looked up) Protein Wnt-3a: SYPIWWSLAVGPQYSSLGSQPILCASIPGLVPKQLRFCRNYVEIMPSVAEGIKIGIQECQHQFRGRRWNCTTVHDSLAIFGPVLDKATRESAFVHAIASAGVAFAVTRSCAEGTAAICGCSSRHQGSPGKGWKWGGCSEDIEFGGMVSREFADARENRPDARSAMNRHNNEAGRQAIASHMHLKCKCHGLSGSCEVKTCWWSQPDFRAIGDFLKDKYDSASEMVVEKHRESRGWVETLRPRYTYFKVPTERDLVYYEASPNFCEPNPETGSFGTRDRTCNVSSHGIDGCDLLCCGRGHNARAERRREKCRCVFHWCCYVSCQECTRVYDVHTCK			abolished	abolished	
BMP4: recombinant BMP4, added to differentiating human ESC (protein, UniProt P12644 293-408, looked up) Bone morphogenetic protein 4: SPKHHSQRARKKNKNCRRHSLYVDFSDVGWNDWIVAPPGYQAFYCHGDCPFPLADHLNSTNHAIVQTLVNSVNSSIPKACCVPTELSAISMLYLDEYDKVVLKNYQEMVVEGCGCR			abolished	abolished	
